From the Human Domainome abundance scans (Beltran et al. 2025)
± gives the uncertainty stated by the source.

B1: Ras GTPase-activating protein 1, residues 281 to 341; numbered along this chain, P20936 (parent)
chain: RRRVRAILPYTKVPDTDEISFLKGDMFIVHNELEDGWMWVTNLRTDEQGLIVEDLVEEVGR

Variants of: B1
Assay: abundance fitness (aPCA) (normalised: wild type 0, dead -1); higher = more abundant; growth selection in yeast, the domain comes from the species named
Settings: Homo sapiens

Variant | abundance fitness
RRRVRAILPYTKVPDTDEISFLKGDMFIVVNELEDGWMWVTNLRTDEQGLIVEDLVEEVGR [H30V] | -0.285 ± 0.029
RRRVRAILPYTKVPDTDEISFLKGDMFIVGNELEDGWMWVTNLRTDEQGLIVEDLVEEVGR [H30G] | -0.444 ± 0.028
RRRVRAILPYTKVPDTDEISFLKGDMFIVNNELEDGWMWVTNLRTDEQGLIVEDLVEEVGR [H30N] | -0.135 ± 0.028
RRRVRAILPYTKVPDTDEISFLKGDMFIVWNELEDGWMWVTNLRTDEQGLIVEDLVEEVGR [H30W] | -0.153 ± 0.045
RRRVRAILPYTKVPDTDEISFLKGDMFIVYNELEDGWMWVTNLRTDEQGLIVEDLVEEVGR [H30Y] | -0.397 ± 0.034
RRRVRAILPYTKVPDTDEISFLKGDMFIVKNELEDGWMWVTNLRTDEQGLIVEDLVEEVGR [H30K] | -0.151 ± 0.065
RRRVRAILPYTKVPDTDEISFLKGDMFIVTNELEDGWMWVTNLRTDEQGLIVEDLVEEVGR [H30T] | -0.261 ± 0.037
RRRVRAILPYTKVPDTDEISFLKGDMFIVANELEDGWMWVTNLRTDEQGLIVEDLVEEVGR [H30A] | -0.4 ± 0.033
RRRVRAILPYTKVPDTDEISFLKGDMFIVCNELEDGWMWVTNLRTDEQGLIVEDLVEEVGR [H30C] | -0.362 ± 0.028
RRRVRAILPYTKVPDTDEISFLKGDMFIVLNELEDGWMWVTNLRTDEQGLIVEDLVEEVGR [H30L] | -0.085 ± 0.03
RRRVRAILPYTKVPDTDEISFLKGDMFIVFNELEDGWMWVTNLRTDEQGLIVEDLVEEVGR [H30F] | -0.39 ± 0.033
RRRVRAILPYTKVPDTDEISFLKGDMFIVQNELEDGWMWVTNLRTDEQGLIVEDLVEEVGR [H30Q] | -0.033 ± 0.056
RRRVRAILPYTKVPDTDEISFLKGDMFIVRNELEDGWMWVTNLRTDEQGLIVEDLVEEVGR [H30R] | -0.255 ± 0.029
RRRVRAILPYTKVPDTDEISFLKGDMFIVMNELEDGWMWVTNLRTDEQGLIVEDLVEEVGR [H30M] | -0.151 ± 0.049
RRRVRAILPYTKVPDTDEISFLKGDMFIVENELEDGWMWVTNLRTDEQGLIVEDLVEEVGR [H30E] | 0.008 ± 0.077
RRRVRAILPYTKVPDTDEISFLKGDMFIVSNELEDGWMWVTNLRTDEQGLIVEDLVEEVGR [H30S] | -0.318 ± 0.026
RRRVRAILPYTKVPDTDEISFLKGDMFIVPNELEDGWMWVTNLRTDEQGLIVEDLVEEVGR [H30P] | -0.789 ± 0.061
RRRVRAILPYTKVPDTDEISFLKGDMFIVHNEFEDGWMWVTNLRTDEQGLIVEDLVEEVGR [L33F] | -0.042 ± 0.026
RRRVRAILPYTKVPDTDEISFLKGDMFIVHNEMEDGWMWVTNLRTDEQGLIVEDLVEEVGR [L33M] | -0.099 ± 0.055
RRRVRAILPYTKVPDTDEISFLKGDMFIVHNEGEDGWMWVTNLRTDEQGLIVEDLVEEVGR [L33G] | -0.082 ± 0.027
RRRVRAILPYTKVPDTDEISFLKGDMFIVHNENEDGWMWVTNLRTDEQGLIVEDLVEEVGR [L33N] | -0.158 ± 0.03
RRRVRAILPYTKVPDTDEISFLKGDMFIVHNEDEDGWMWVTNLRTDEQGLIVEDLVEEVGR [L33D] | -0.182 ± 0.03

Variant | abundance fitness
RRRVRAILPYTKVPDTDEISFLKGDMFIVHNEIEDGWMWVTNLRTDEQGLIVEDLVEEVGR [L33I] | -0.075 ± 0.028
RRRVRAILPYTKVPDTDEISFLKGDMFIVHNEQEDGWMWVTNLRTDEQGLIVEDLVEEVGR [L33Q] | 0.004 ± 0.05
RRRVRAILPYTKVPDTDEISFLKGDMFIVHNEAEDGWMWVTNLRTDEQGLIVEDLVEEVGR [L33A] | -0.054 ± 0.031
RRRVRAILPYTKVPDTDEISFLKGDMFIVHNECEDGWMWVTNLRTDEQGLIVEDLVEEVGR [L33C] | -0.07 ± 0.026
RRRVRAILPYTKVPDTDEISFLKGDMFIVHNEPEDGWMWVTNLRTDEQGLIVEDLVEEVGR [L33P] | -0.07 ± 0.039
RRRVRAILPYTKVPDTDEISFLKGDMFIVHNEEEDGWMWVTNLRTDEQGLIVEDLVEEVGR [L33E] | -0.153 ± 0.065
RRRVRAILPYTKVPDTDEISFLKGDMFIVHNEREDGWMWVTNLRTDEQGLIVEDLVEEVGR [L33R] | 0.04 ± 0.03
RRRVRAILPYTKVPDTDEISFLKGDMFIVHWELEDGWMWVTNLRTDEQGLIVEDLVEEVGR [N31W] | -0.043 ± 0.045
RRRVRAILPYTKVPDTDEISFLKGDMFIVHVELEDGWMWVTNLRTDEQGLIVEDLVEEVGR [N31V] | -0.159 ± 0.028
RRRVRAILPYTKVPDTDEISFLKGDMFIVHGELEDGWMWVTNLRTDEQGLIVEDLVEEVGR [N31G] | -0.072 ± 0.028
RRRVRAILPYTKVPDTDEISFLKGDMFIVHLELEDGWMWVTNLRTDEQGLIVEDLVEEVGR [N31L] | -0.174 ± 0.029
RRRVRAILPYTKVPDTDEISFLKGDMFIVHCELEDGWMWVTNLRTDEQGLIVEDLVEEVGR [N31C] | -0.129 ± 0.027
RRRVRAILPYTKVPDTDEISFLKGDMFIVHTELEDGWMWVTNLRTDEQGLIVEDLVEEVGR [N31T] | -0.046 ± 0.03
RRRVRAILPYTKVPDTDEISFLKGDMFIVHPELEDGWMWVTNLRTDEQGLIVEDLVEEVGR [N31P] | -0.841 ± 0.068
RRRVRAILPYTKVPDTDEISFLKGDMFIVHYELEDGWMWVTNLRTDEQGLIVEDLVEEVGR [N31Y] | -0.057 ± 0.029
RRRVRAILPYTKVPDTDEISFLKGDMFIVHFELEDGWMWVTNLRTDEQGLIVEDLVEEVGR [N31F] | -0.17 ± 0.029
RRRVRAILPYTKVPDTDEISFLKGDMFIVHEELEDGWMWVTNLRTDEQGLIVEDLVEEVGR [N31E] | -0.038 ± 0.056
RRRVRAILPYTKVPDTDEISFLKGDMFIVHRELEDGWMWVTNLRTDEQGLIVEDLVEEVGR [N31R] | 0.073 ± 0.027
RRRVRAILPYTKVPDTDEISFLKGDMFIVHMELEDGWMWVTNLRTDEQGLIVEDLVEEVGR [N31M] | -0.044 ± 0.051
RRRVRAILPYTKVPDTDEISFLKGDMFIVHAELEDGWMWVTNLRTDEQGLIVEDLVEEVGR [N31A] | -0.036 ± 0.032
RRRVRAILPYTKVPDTDEISFLKGDMFIVHKELEDGWMWVTNLRTDEQGLIVEDLVEEVGR [N31K] | 0.034 ± 0.06
RRRVRAILPYTKVPDTDEISFLKGDMFIVHDELEDGWMWVTNLRTDEQGLIVEDLVEEVGR [N31D] | 0.046 ± 0.033
